Experimental data published in patent US20250215091A1, “Anti-GAL3 Antibodies and Compositions” (Les Laboratoires Servier, priority 2022, published 2025).

What was measured:
plasma TNF alpha = assay: Rat ARDS model (LPS challenge): plasma TNF alpha (MSD); format: in vivo; settings: 4 h following LPS challenge; vs LPS group; FIG. 18
Method: (§1) Positive control rats received 3 doses of sterile phosphate buffer at day minus 11, minus 6 and minus 1 prior LPS challenge (0.25 mg/kg by subcutaneous route at day 1). Negative control rats received one oral dose of Dexamethasone at 10 mg/kg (dissolved in 0.5% carboxymethyl cellulose in deionized water) 2 hours prior LPS challenge (0.25 mg/kg by subcutaneous route at day 1). LPS (lipopolysaccharide) causes an acute inflammatory response, whereas dexamethasone has anti-inflammatory effects thus being the reference treatment in this model.
(§2) Antibody-treated rats received 3 doses of antibodies (14 mg/kg) at day minus 11, minus 6 and minus 1 prior to LPS challenge (0.25 mg/kg by subcutaneous route at day 1). Each antibody was solubilized in sterile PBS before injection.
(§3) Control rats of the experiment received 3 doses of sterile phosphate buffer at day minus 11, minus 6 and minus 1 without LPS challenge at day 1.
For all rats, plasma sampling was performed 4 h following LPS challenge.
The impact of anti-Gal3 antibody treatment in LPS challenged rats were evaluated on plasma cytokine levels, namely TNF alpha and KC-GRO cytokines, and compared to the positive control group (LPS challenge with PBS treatment) (respectively FIG. 18A and FIG. 18B). TNF alpha and KC-GRO were quantified by using the MSD technology from Mesoscale.

rat model of ARDS [1] = assay: Rat ARDS model (LPS challenge): neutrophils counts in BALF; format: in vivo; settings: antibodies 14 mg/kg x3 prior to LPS; dexamethasone 10 mg/kg oral; vs LPS group; FIG. 16
Method: as §1, §2, §3
(§4) The impact of anti-Gal3 antibody treatment in LPS challenged rats were evaluated by quantification of neutrophils in Bronchoalveolar Lavage Fluid and compared to the positive control group (LPS challenge with PBS treatment) (FIG. 16). […] Neutrophils numeration levels were decreased after treatment with anti-inflammatory dexamethasone.

[2] = system: murine model of bleomycin-induced fibrosis; assay: Bleomycin-induced murine lung fibrosis model: body weight and body weight metrics; format: in vivo, mice
Method: (§5) Control bleomycin mice named ‘Bleo’ received an administration of 1.65 mg/kg bleomycin by the oropharyngeal route on Day 1. […] Antibody-treated mice also received an administration of 1.65 mg/kg bleomycin by the oropharyngeal route on Day 1 and a subcutaneous injection of 20 mg/kg antibody, starting on day minus one and on days 4, 8, 12, 16 and 20. Each antibody was solubilized in sterile, endotoxin-free PBS before injection. Mice that received bleomycin were also treated by oropharyngeal administration of 0.5 mg/kg of TD139 compound (Bleo-TD139), a small molecule Gal3 inhibitor, starting on day 12 and every 2 days until day 20. TD139 was initially dissolved in 100% DMSO.
Mice were weighed daily. Their growth curves are represented on FIG. 12. Control mice had normal growth with a mean percent increase of 6.4% of their initial body weight measured on day minus 1.
Body weight metrics were assessed by using two parameters called Time to weight growth (TWG) and Time to baseline (TTB), shown on FIG. 13. Time to weight growth corresponds to the point of inflection when mice show an ascending growth curve and start to regain weight within the course of the experiment. Time to baseline corresponds to the number of days required for mice to recover their initial body weight (day minus 1). The median TWG was 10 days for the untreated bleomycin group. […] TD139 compound had no efficacy on this parameter (p-value 0.53).

rat model of ARDS [3] = assay: Rat ARDS model (LPS challenge): total BALF protein (BCA assay); format: in vivo; settings: antibodies 14 mg/kg x3 prior to LPS; dexamethasone 10 mg/kg oral; vs LPS group; FIG. 17
Method: as §1, §2, §3
as §4, with “proteins (by BCA assay)” for “neutrophils”, “BALF” for “Bronchoalveolar Lavage Fluid”, “17). The presence of protein in BALF reflects the damage to the air-blood barrier.” for “16).”, “Total BALF protein” for “Neutrophils”

[4] = system: murine model of HOCI-induced fibrosis; assay: HOCI-induced murine fibrosis model: skin and lung collagen (Picrosirius red); format: in vivo, mice; settings: first experiment
Method: In a first experiment, control mice (n=12) received a daily intradermal injection of 300 μL of sterile phosphate buffer saline (PBS) for 5 consecutive days per week, for a duration of 42 days. HOCI alone and HOCI with antibody (HOCI-antibody) treated mice (n=12 per group) received a daily intradermal injection of 300 μL of HOCI for 5 consecutive days per week, for a duration of 42 days. Antibody-treated mice also received a subcutaneous injection of 20 mg/kg antibody, starting at day minus one and every 5 days between day 5 and day 40. Each antibody was solubilized in sterile, endotoxin-free PBS before injection. In a second experiment, the same protocol was applied, except that duration of the study was 63 days and antibodies were given every 7 days starting at day minus 1 until day 62.
Mice that received daily injection of HOCI were also treated by intratracheal instillation of 0.5 mg/kg of TD139 compound (HOCI-TD139), a small molecule Gal3 inhibitor. In a first experiment, the administrations started from day 21 and the compound was given every 3 days until day 39. In a second experiment, the administrations started from day 20 and the compound was given every 3 days until day 62. TD139 was initially dissolved in 100% DMSO then diluted 50-fold in endotoxin-free PBS before administration.
At the day of study termination of the first experiment (day 42), skin and lung samples were taken, formalin-fixed and processed to individual paraffin wax blocks. Sections of skin and lung were cut from the blocks and, after rehydration, stained with Picrosirius Red coloration according to the manufacturer's protocol. Subsequently, each slide was examined and remotely analyzed employing the web-based Image J software

[5] = system: murine model of bleomycin-induced fibrosis; assay: Bleomycin-induced murine lung fibrosis model: Modified Ashcroft fibrosis score; format: in vivo, mice
Method: as §5
Mice were submitted for terminal euthanasia on day 21. The lungs were collected for histopathological examination and gravity inflation-fixed with 10% neutral buffered formalin (NBF) before being immersion fixed in NBF.
Sections were taken and then placed on three slides as indicated by the code numbers on FIG. 14.
Three longitudinal sections parallel to and bisecting the main stem bronchus were trimmed from the left lung and right caudal lung lobes and mounted in cassettes 01 and 02, respectively. The right cranial, middle and accessory lung lobes were sectioned longitudinally and mounted in cassette 03. All sections were stained with picrosirius red and scored in a blinded manner by a certified veterinary pathologist using the Modified Ashcroft fibrosis score (0-8), where “0” corresponds to “normality (no fibrosis) and “8” corresponds to the highest possible fibrosis score, as described by Hübner et al. (2008) but based on assessment across the whole section of lung.

B1: D06: anti-Gal3 monoclonal antibody, IgG1 format; VH SEQ ID NO 38, VL SEQ ID NO 39 (antibody, V domains shown)
VH: EVQLVESGGSLVKPGGSLRLSCAASGFTFSNYNMNWVRQAPGKGLEWISSIYGSSRYIYYADFVKGRFTISRDNAKNSLYLQMNSLRAEDTAVYYCVRSGYGGMDVWGRGTLVTVSS
VL: QSVLTQPASVSGSPGQSITISCAGTSSDVGGYNGVSWYQQHPGKAPKLMIYYDSYRPSGVSNRFSGSKSGNTASLTISGLQAEDEADYYCSSGTDYSTRVFGGGTKLEIK
modifications: IgG1 constant region
- TNF alpha plasma levels (plasma TNF alpha): also decreased, displaying an intermediary profile
- neutrophils counts in BALF (rat model of ARDS [1]): also decreased
- body weight status on day 21 ([2]; bleomycin 1.65 mg/kg, antibody 20 mg/kg s.c.): full weight recovery
- recovery of body weight ([2]; bleomycin 1.65 mg/kg, antibody 20 mg/kg s.c., FIG. 12): more rapid recovery of body weight
- reduction of median Time to baseline (TTB) ([2]; median TTB 20 days for untreated bleomycin group, FIG. 13): 5.5 days
- reduction of median Time to weight growth (TWG) ([2]; median TWG 10 days for untreated bleomycin group, FIG. 13): 2.8 days
- total BALF protein (rat model of ARDS [3]): also decreased
- lung collagen levels ([4]; day 42, FIG. 8A): restored lung collagen levels to those of control mice
- skin collagen levels ([4]; day 42, vs HOCI group, FIG. 8B): non significant downward trend
- frequency of animals with fibrosis score of 2 ([5]; day 21, 7.4% in untreated bleomycin group): 30%
- frequency of animals with median fibrosis scores of 3 or 4 ([5]; day 21, 87.6% in untreated bleomycin group): 64.5%
- attenuation of lung fibrosis (overall) ([5]; day 21, FIG. 15): clear evidence for attenuation of lung fibrosis
